Source: publication PMC3514216, “SRC Homology 2 Domain Binding Sites in Insulin, IGF-1 and FGF receptor mediated signaling networks reveal an extensive potential interactome” (Cell Communication and Signaling : CCS, 2012)
Non-standard residues stand in square brackets, D forms with d. No end group written: not given here. pY = N[C@@H](Cc1ccc(OP(=O)(O)O)cc1)C(=O)O

What was measured:
Conditions in all cases: both partners purified
GST-Sh2b SH2 domain = target: T1, GST-Sh2b SH2 domain (human, UniProt Q9NRF2 527-625); assay: fluorescence polarisation; Rhodamine B-labelled peptide in solution with SH2 domain; Beacon 2000; as previously described [40]
T1 construct: SH2 domain of Sh2b; source: E. coli BL21, purified (glutathione sepharose, NAP-10)

GST-Tenc1 SH2 domain = target: T2, GST-Tenc1 SH2 domain (human, UniProt Q63HR2 1140-1247); assay: as above
T2 construct: source: E. coli BL21, purified (glutathione sepharose, NAP-10)
T2 sequence (looked up): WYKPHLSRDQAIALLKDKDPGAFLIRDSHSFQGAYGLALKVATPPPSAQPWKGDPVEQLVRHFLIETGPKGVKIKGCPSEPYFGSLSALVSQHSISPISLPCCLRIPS

GST-Crk SH2 domain = target: T3, GST-Crk SH2 domain (human, UniProt P46108 13-118); assay: as above
T3 construct: SH2 domain of Crk; source: E. coli BL21, purified (glutathione sepharose, NAP-10)
T3 sequence (P46108 13-118): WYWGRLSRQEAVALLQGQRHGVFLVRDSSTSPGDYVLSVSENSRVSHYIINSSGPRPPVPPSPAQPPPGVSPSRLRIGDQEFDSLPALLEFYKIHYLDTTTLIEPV

GST-Abl2 SH2 domain = target: T4, GST-Abl2 SH2 domain (human, UniProt P42684 173-263); assay: as above
T4 construct: SH2 domain of Abl2; source: E. coli BL21, purified (glutathione sepharose, NAP-10)
T4 sequence (looked up): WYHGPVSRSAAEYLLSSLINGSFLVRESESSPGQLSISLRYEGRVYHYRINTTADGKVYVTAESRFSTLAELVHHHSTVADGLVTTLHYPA

GST-Grb2 SH2 domain = target: T5, GST-Grb2 SH2 domain (human, UniProt P62993 60-152); assay: as above
T5 construct: SH2 domain of Grb2; source: E. coli BL21, purified (glutathione sepharose, NAP-10)
T5 sequence (P62993 60-152): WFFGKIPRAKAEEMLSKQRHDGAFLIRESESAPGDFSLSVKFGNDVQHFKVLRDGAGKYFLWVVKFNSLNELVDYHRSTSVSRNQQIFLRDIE

GST-Src SH2 domain = target: T6, GST-Src SH2 domain (human, UniProt P12931 151-248); assay: as above
T6 construct: SH2 domain of Src; source: E. coli BL21, purified (glutathione sepharose, NAP-10)

GST-Abl1 SH2 domain = target: T7, GST-Abl1 SH2 domain (human, UniProt P00519 127-217); assay: as above
T7 construct: SH2 domain of Abl1; source: E. coli BL21, purified (glutathione sepharose, NAP-10)
T7 sequence (looked up): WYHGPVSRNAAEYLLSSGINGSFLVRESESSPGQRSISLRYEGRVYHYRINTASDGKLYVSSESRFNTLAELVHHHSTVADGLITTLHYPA

GST-CrkL SH2 domain = target: T8, GST-CrkL SH2 domain (human, UniProt P46109 14-102); assay: as above
T8 construct: SH2 domain of CrkL; source: E. coli BL21, purified (glutathione sepharose, NAP-10)
T8 sequence (P46109 14-102): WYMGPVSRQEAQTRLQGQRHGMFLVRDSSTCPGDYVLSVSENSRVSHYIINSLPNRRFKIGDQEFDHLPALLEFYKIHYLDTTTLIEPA

GST-Vav1 SH2 domain = target: T9, GST-Vav1 SH2 domain (human, UniProt P15498 671-765); assay: as above
T9 construct: SH2 domain of Vav1; source: E. coli BL21, purified (glutathione sepharose, NAP-10)
T9 sequence (looked up): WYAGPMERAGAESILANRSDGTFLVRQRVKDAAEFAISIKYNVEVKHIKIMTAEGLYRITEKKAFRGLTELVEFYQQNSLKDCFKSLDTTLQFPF

GST-Shc1 SH2 domain = target: T10, GST-Shc1 SH2 domain (human, UniProt P29353 488-579); assay: as above
T10 construct: SH2 domain of Shc1; source: E. coli BL21, purified (glutathione sepharose, NAP-10)
T10 sequence (looked up): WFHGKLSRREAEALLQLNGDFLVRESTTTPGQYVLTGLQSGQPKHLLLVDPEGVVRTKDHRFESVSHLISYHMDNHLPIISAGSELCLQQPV

GST-Nck1 SH2 domain = target: T11, GST-Nck1 SH2 domain (human, UniProt P16333 282-376); assay: as above
T11 construct: SH2 domain of Nck1; source: E. coli BL21, purified (glutathione sepharose, NAP-10)

GST-Fgr SH2 domain = target: T12, GST-Fgr SH2 domain (human, UniProt P09769 144-241); assay: as above
T12 construct: SH2 domain of Fgr; source: E. coli BL21, purified (glutathione sepharose, NAP-10)

GST-Brk SH2 domain = target: T13, GST-Brk SH2 domain (human, UniProt Q13882 78-170); assay: as above
T13 construct: SH2 domain of Brk; source: E. coli BL21, purified (glutathione sepharose, NAP-10)
T13 sequence (Q13882 78-170): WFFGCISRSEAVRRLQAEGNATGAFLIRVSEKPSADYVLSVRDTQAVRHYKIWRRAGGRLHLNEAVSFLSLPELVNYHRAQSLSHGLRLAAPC

GST-Fer SH2 domain = target: T14, GST-Fer SH2 domain (human, UniProt P16591 460-550); assay: as above
T14 construct: SH2 domain of Fer; source: E. coli BL21, purified (glutathione sepharose, NAP-10)
T14 sequence (P16591 460-550): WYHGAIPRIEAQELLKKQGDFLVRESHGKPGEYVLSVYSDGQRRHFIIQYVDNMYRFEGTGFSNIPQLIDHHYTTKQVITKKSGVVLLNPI

GST-Itk SH2 domain = target: T15, GST-Itk SH2 domain (human, UniProt Q08881 239-338); assay: as above
T15 construct: SH2 domain of Itk; source: E. coli BL21, purified (glutathione sepharose, NAP-10)
T15 sequence (looked up): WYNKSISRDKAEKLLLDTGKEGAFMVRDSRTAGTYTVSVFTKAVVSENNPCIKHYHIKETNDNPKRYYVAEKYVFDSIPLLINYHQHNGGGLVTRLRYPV

GST-Sh3bp2 SH2 domain = target: T16, GST-Sh3bp2 SH2 domain (human, UniProt P78314 457-555); assay: as above
T16 construct: SH2 domain of Sh3bp2; source: E. coli BL21, purified (glutathione sepharose, NAP-10)
T16 sequence (looked up): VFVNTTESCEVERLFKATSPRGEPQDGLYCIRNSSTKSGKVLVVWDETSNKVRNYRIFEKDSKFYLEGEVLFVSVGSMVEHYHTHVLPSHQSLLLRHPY

GST-Ship2 SH2 domain = target: T17, GST-Ship2 SH2 domain (human, UniProt O15357 21-117); assay: as above
T17 construct: SH2 domain of Ship2; source: E. coli BL21, purified (glutathione sepharose, NAP-10)
T17 sequence (looked up): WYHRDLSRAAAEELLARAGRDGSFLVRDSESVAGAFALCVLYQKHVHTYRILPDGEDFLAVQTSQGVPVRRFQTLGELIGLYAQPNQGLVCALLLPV

GST-Shb SH2 domain = target: T18, GST-Shb SH2 domain (human, UniProt Q15464 410-504); assay: as above
T18 construct: SH2 domain of Shb; source: E. coli BL21, purified (glutathione sepharose, NAP-10)
T18 sequence (Q15464 410-504): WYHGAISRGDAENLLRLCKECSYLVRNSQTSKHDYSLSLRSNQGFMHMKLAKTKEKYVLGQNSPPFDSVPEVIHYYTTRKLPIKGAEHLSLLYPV

GST-Sh2d1b SH2 domain = target: T19, GST-Sh2d1b SH2 domain (human, UniProt O14796 5-101); assay: as above
T19 construct: SH2 domain of Sh2d1b (Eat-2); also called Eat-2; source: E. coli BL21, purified (glutathione sepharose, NAP-10)
T19 sequence (looked up): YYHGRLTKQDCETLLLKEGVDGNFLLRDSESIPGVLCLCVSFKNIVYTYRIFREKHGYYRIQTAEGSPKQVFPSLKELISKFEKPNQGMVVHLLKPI

GST-Yes SH2 domain = target: T20, GST-Yes SH2 domain (human, UniProt P07947 158-255); assay: peptide or protein array; SPOT array of 192 membrane-bound 11-mer phosphotyrosine peptides; GST-SH2 0.25 uM in TBS-T with 5% nonfat milk and 1 mM DTT, 1.5 h, room temperature; anti-GST and Alexa-Fluor-680 secondary, Li-Cor Odyssey; array positive >3X the array mean, array negative <1X, indeterminate between
T20 construct: SH2 domain of the kinase Yes; source: E. coli BL21, purified (glutathione sepharose, NAP-10)
T20 sequence (P07947 158-255): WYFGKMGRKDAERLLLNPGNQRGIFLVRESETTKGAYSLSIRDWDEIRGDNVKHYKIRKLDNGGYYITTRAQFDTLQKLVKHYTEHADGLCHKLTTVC

B1: IRS-1 (Y896) phosphopeptide SPGEpYVNIEFG, Rhodamine B-labelled (peptide)
peptide: SPGE[pY]VNIEFG
modifications: also: Rhodamine B label, site not given here
notes: IRS-1 around Y896; source: synthetic peptide (FMOC chemistry), purified by LC/MS
Kd (GST-Sh2b SH2 domain): 3.58 µM
Kd (GST-Tenc1 SH2 domain): 24 µM
Kd (GST-Crk SH2 domain): > 20 µM
Kd (GST-Abl2 SH2 domain): 3.66 µM
Kd (GST-Grb2 SH2 domain): 0.8 µM
Kd (GST-Src SH2 domain): 2.21 µM
Kd (GST-Abl1 SH2 domain): 7.48 µM

B2: IRS-1 (Y1179) phosphopeptide NGLNpYIDLDLV, Rhodamine B-labelled (peptide)
peptide: NGLN[pY]IDLDLV
modifications: not fully specified (N-terminus); also: Rhodamine B label, site not given here
notes: IRS-1 around Y1179; source: synthetic peptide (FMOC chemistry), purified by LC/MS
Kd (GST-CrkL SH2 domain): > 50 µM
Kd (GST-Grb2 SH2 domain): > 50 µM
Kd (GST-Src SH2 domain): 9.94 µM
Kd (GST-Abl1 SH2 domain): 22.2 µM

B3: p62DOK1 (Y398) phosphopeptide KEEGpYELPYNP, Rhodamine B-labelled (peptide)
peptide: KEEG[pY]ELPYNP
modifications: not fully specified (N-terminus); also: Rhodamine B label, site not given here
notes: p62DOK1 around Y398; source: synthetic peptide (FMOC chemistry), purified by LC/MS
Kd (GST-Vav1 SH2 domain): 4.73 µM
Kd (GST-Shc1 SH2 domain): 5.74 µM
Kd (GST-Nck1 SH2 domain): 4.37 µM
Kd (GST-Fgr SH2 domain): 2.04 µM
Kd (GST-Brk SH2 domain): 0.42 µM
Kd (GST-Crk SH2 domain): 23.7 µM
Kd (GST-Fer SH2 domain): 13.3 µM
Kd (GST-Abl2 SH2 domain): 3.47 µM
Kd (GST-Src SH2 domain): 5.06 µM
Kd (GST-Itk SH2 domain): 5.43 µM
Kd (GST-Sh3bp2 SH2 domain): 1.68 µM
Kd (GST-Abl1 SH2 domain): 5.77 µM

B4: FGFR1 (Y463) phosphopeptide GVSEpYELPEDP, Rhodamine B-labelled (peptide)
peptide: GVSE[pY]ELPEDP
modifications: not fully specified (N-terminus); also: Rhodamine B label, site not given here
notes: FGFR1 around Y463; also called FGFR1 pY-463; source: synthetic peptide (FMOC chemistry), purified by LC/MS
Kd (GST-Vav1 SH2 domain): 1.87 µM
Kd (GST-CrkL SH2 domain): > 50 µM
Kd (GST-Nck1 SH2 domain): 2.45 µM
Kd (GST-Crk SH2 domain): 44 µM
Kd (GST-Src SH2 domain): 6.85 µM

B5: p130Cas (Y362) phosphopeptide AEDVpYDVPPPA, Rhodamine B-labelled (peptide)
peptide: AEDV[pY]DVPPPA
modifications: not fully specified (N-terminus); also: Rhodamine B label, site not given here
notes: p130Cas (BCAR1) around Y362; source: synthetic peptide (FMOC chemistry), purified by LC/MS
Kd (GST-Shc1 SH2 domain): 32.8 µM
Kd (GST-Ship2 SH2 domain): 16.5 µM
Kd (GST-CrkL SH2 domain): 0.99 µM
Kd (GST-Nck1 SH2 domain): 0.93 µM
Kd (GST-Crk SH2 domain): 0.35 µM
Kd (GST-Abl2 SH2 domain): 14 µM

B6: FGFR3 (Y760) phosphopeptide STDEpYLDLSAP, Rhodamine B-labelled (peptide)
peptide: STDE[pY]LDLSAP
modifications: also: Rhodamine B label, site not given here
notes: FGFR3 around Y760; source: synthetic peptide (FMOC chemistry), purified by LC/MS
Kd (GST-Shb SH2 domain): > 50 µM
Kd (GST-Sh2d1b SH2 domain): 5.3 µM
Kd (GST-Abl2 SH2 domain): 27 µM

B7: p130Cas (Y234) peptide EQDEYDIPRHL, SPOT array (peptide)
peptide: EQDE[pY]DIPRHL
modifications: also: membrane-bound on SPOT array
notes: p130Cas (BCAR1) around Y234; source: synthetic peptide, SPOT synthesis on cellulose membrane
binding result (GST-Yes SH2 domain): binds
